Measured values reported in the RNAGym collection of RNA variant scans (doi:10.1073/pnas.2313332121).

B1: TPR t1 (parent)
chain: GACCAAUCUGCCCUCAGAGCUCGAGAACAUCUUCGGAUGCAGAGGAGGCAGGCUUCGGUGGCGCGAUAGCGCCAACGUCCUCAACCUCCAAUGCAUCCCACCACAUGAUGAUGCCUGAAGAGCCUUGGUUUUUUG

Variants of: B1
Assay: polymerase ribozyme fitness, log enrichment relative to wild type (log ratio); higher = more active; in vitro selection for triplet polymerase activity
Method in brief: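 Frozen incubation at −7 °C formed the core of a single, triplicate in vitro selection round applied to PCR-built, transcribed mutant libraries of each subunit of a heterodimeric triplet polymerase ribozyme. Extended constructs were gel-excised, captured with streptavidin beads and amplified by RT-PCR, and input and output libraries were Illumina-sequenced with a filter of ≥10 input reads and ≥1 read per output. Fitness is the logarithm of genotype enrichment relative to wild-type enrichment, with inverse-variance-weighted replicate averaging, and the logarithm is base 2.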

Row | Variant | polymerase ribozyme fitness (log ratio)
1 | A66C A111G G117U | -7.39
2 | A26U C53G C73U A100U | -4.47
3 | U32A G45C U54A G61U | -3.78
4 | G61U C82G A100C G113U | -5.11
5 | A84G G120A U130G | -0.15
6 | C64U C72A A108C | -5.82
7 | G69C U87A | -1.98
8 | C12A A16U A50U A74U | -5.14
9 | G42A A43G C56A A66U A91G U96A U112G | -6.49
10 | G69C A105U U112G | -3.4
11 | U7G C12U A37G A43G G61A A91C | -0.427
12 | G48U A66U C72A U96G U112C | -1.61
13 | C64U C124A | 1.41
14 | C12U A29G U125A | -1.53
15 | C53A U59C A121G | 1.49
16 | U9C C56G C62U | 0.103
17 | U78C A90C | -0.796
18 | G17U G48U C56A U78C U87G U112A | -3.06
19 | C12G C53U G60C C89U C102U C104U | -2.28
20 | G61C G113C | -3.19
21 | G47C G69A | -4.38

Row | Variant | polymerase ribozyme fitness (log ratio)
22 | A43U A91U G110A G120C | -5.56
23 | A16G G51C | -5.21
24 | A18U C115U | -2.09
25 | A41G G71U | -0.756
26 | C20A G52A G60A C98A C99U A105G C114A | -5.87
27 | G35U A74G | -5.03
28 | U87A | 0.0155
29 | C20A G57C C62U G120C | -2.1
30 | A6G C11U C98A | -5.05
31 | U30C | -1.66
32 | A26G C28U U87C A118U | -2.19
33 | G42U G71U C101U | -1.49
34 | C8G G19C A75U C89G | -2.29
35 | G51A C56U G63C A84U C99U A121U | -6.23
36 | U9A C101G | -1.55
37 | G61C G107U | -7.35
38 | C114U G117U | -5.77
39 | C8G C20U G36C C49A A75G A100U | -2.01
40 | G61C C82U G117A | -2.78
41 | U7A C8A C11G G47U G57U C85A | -2.04
42 | A26C G63A C82G A90G U112A | -5.15

Row | Variant | polymerase ribozyme fitness (log ratio)
43 | G25A C72A | -5.51
44 | U55G C99U | -2.45
45 | A2U C76U | -1.64
46 | A41U G61C | -3.99
47 | G63A C123A | -0.259
48 | C56A C97G | -4.2
49 | U81A C88A C101U | -1.46
50 | G47U C56G G69C C76A A119G U129C | -7.91
51 | C49U G63A C80U G120A | -5.11
52 | U55C G57U A66C C123G | -0.734
53 | A46U G71A G93A G120A G122A | -3.97
54 | C40A G44A U78C | -2.1
55 | C73U A84C U92G U112A | -2.54
56 | A121C G128U | 0.545
57 | C12U C82U | 0.282
58 | G23A G60A | -4.52
59 | C11U A26U U55C A75G A83C | -3.24
60 | G25C C89A | -7.16
61 | C13A A27U | -3.33
62 | A6C C8G G44C C64U U78C | -1.41
63 | U21C C56A G69U C70U U96A A119G | -2.46

Row | Variant | polymerase ribozyme fitness (log ratio)
64 | C3A G52U G60U | -1.88
65 | G36U C104A | -2.99
66 | C70U U112G | -0.342
67 | G19C U81C C124G | -0.981
68 | A27U G36C G44C G122A U126G | -5.95
69 | G35U G117A | -5.15
70 | A18U G36U | -3.48
71 | A18C C72G C89G C114A U130A | -4.03
72 | A5G G10A C15A G23C U32G G61C A90C | -6.73
73 | C53A U132A | -0.786
74 | G117U C123G | -1.56
75 | A46C C56A | -1.56
76 | C79U A119U | -0.48
77 | U7C C11A C98A | -6.8
78 | C3A C13U C73U | -1.44
79 | G45A G71U | -0.591
80 | C3U C22U | -3.6
81 | G35A G52U | -3.5
82 | G19U G71C A121U | -2.34
83 | A43U C53A U129A | -4.05
84 | A46G A74U G77A G113U | -3.68
